Assay results published in article PMC11672753 (2024).

Target: neonatal Fc receptor FcRn (FcRn-SmBiT) (UniProt P55899 24-297)
Test: competition with IgG-LgBiT tracer (Lumit FcRn assay)

Sequence of neonatal Fc receptor FcRn (FcRn-SmBiT) (P55899 24-297, chain 1 of 2): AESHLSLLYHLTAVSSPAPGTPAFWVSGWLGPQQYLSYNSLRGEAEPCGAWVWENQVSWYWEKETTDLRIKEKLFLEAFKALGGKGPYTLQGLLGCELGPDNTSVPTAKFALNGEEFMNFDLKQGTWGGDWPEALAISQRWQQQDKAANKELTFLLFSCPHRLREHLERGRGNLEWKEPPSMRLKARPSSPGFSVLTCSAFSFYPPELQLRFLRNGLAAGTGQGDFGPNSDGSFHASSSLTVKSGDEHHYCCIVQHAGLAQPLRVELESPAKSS
Sequence of neonatal Fc receptor FcRn (FcRn-SmBiT) (chain, as listed by the source, chain 2 of 2): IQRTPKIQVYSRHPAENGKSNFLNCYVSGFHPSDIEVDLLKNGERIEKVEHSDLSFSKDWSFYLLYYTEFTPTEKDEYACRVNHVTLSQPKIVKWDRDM

| Binder | IC50 [µg/mL] |
| --- | --- |
| S15-FX (Fc fusion, N-linked glycan at Asn297 devoid of core α-1,3-fucose and β-1,2-xylose; predominantly complex GnGn (52%–54%) and M5-M9 high mannose type (22%–24%); ~15% unglycosylated sites) chain 1: QVQLLESGGGLVQPGGSLRLSCAASGFTFSSYAMSWVRQAPGKGLEWASAISGSGGSTYYADSVEGRFTISRDNSKNTLYLQMNSLRAEDTAVYYCAKDTGYCGDDCYIKLIRGGPDYWGQGTLVTVSS chain 2: DIVMTQSPLSLPVTLGQPASISCRSSQSLVYSDGNTFLNWFQQRPGQSPRRLIYQVSNRDSGVPDRFSGSGSGTDFTLKISRVEAEDVGVYYCMQGTHWPRTFGQGTKLEIK | 19.5 |
| S15-YTE (Fc fusion, N-linked glycan at Asn297, absent in a larger percentage (>10%) of antibodies) chain 1: QVQLLESGGGLVQPGGSLRLSCAASGFTFSSYAMSWVRQAPGKGLEWASAISGSGGSTYYADSVEGRFTISRDNSKNTLYLQMNSLRAEDTAVYYCAKDTGYCGDDCYIKLIRGGPDYWGQGTLVTVSS chain 2: DIVMTQSPLSLPVTLGQPASISCRSSQSLVYSDGNTFLNWFQQRPGQSPRRLIYQVSNRDSGVPDRFSGSGSGTDFTLKISRVEAEDVGVYYCMQGTHWPRTFGQGTKLEIK | 11.8 |
| S15-HDEL (Fc fusion, N-linked glycan at Asn297: 88%–92% high-mannose-type N-glycans, less than 2% with α-1,3-fucose and β-1,2-xylose) chain 1: QVQLLESGGGLVQPGGSLRLSCAASGFTFSSYAMSWVRQAPGKGLEWASAISGSGGSTYYADSVEGRFTISRDNSKNTLYLQMNSLRAEDTAVYYCAKDTGYCGDDCYIKLIRGGPDYWGQGTLVTVSS chain 2: DIVMTQSPLSLPVTLGQPASISCRSSQSLVYSDGNTFLNWFQQRPGQSPRRLIYQVSNRDSGVPDRFSGSGSGTDFTLKISRVEAEDVGVYYCMQGTHWPRTFGQGTKLEIK | 8.58 |
| S15 (plant-produced COVA2-15, single-chain (sc)Fv-Fc format) (Fc fusion, N-linked glycan at Asn297, major glycoforms complex type with α-1,3 fucose and β-1,2-xylose (GnGnXF)) chain 1: QVQLLESGGGLVQPGGSLRLSCAASGFTFSSYAMSWVRQAPGKGLEWASAISGSGGSTYYADSVEGRFTISRDNSKNTLYLQMNSLRAEDTAVYYCAKDTGYCGDDCYIKLIRGGPDYWGQGTLVTVSS chain 2: DIVMTQSPLSLPVTLGQPASISCRSSQSLVYSDGNTFLNWFQQRPGQSPRRLIYQVSNRDSGVPDRFSGSGSGTDFTLKISRVEAEDVGVYYCMQGTHWPRTFGQGTKLEIK | 32.8 |
